These results are taken from the DeepSol protein solubility set.

A short description of this data set: soluble on expression in E. coli; label from the status in PepcDB or PDB records.
In the case of “MSAEQDKEPIALKRVRGGDSGLDGLGGPNIQLGSPDKKKRKANTQGSSFPPLSEYAPPPNPNSDHLVAANPFDDSYNTISYKPLPSSNPYLGPGYPGFGGYSTFRMPPHVPPRMSSPYCGPYSLRNQPHPFPQNPLGMGFNRPHAFNFGPHDNSNFGNPPYNNVLTQDINMPGQHFRQGSAENFSQIPPQNVGQVSNPDLASNFAPGNNSNFTSPLETNHSFIPPPNAFGQAKAPLPKQDFTQGATKTPNQNSSTHPPHLNMEDPVNQSNVELKNVNRNNVVQENSRSGSAEATNNHANGTQNKPRQPRGAADLCTPDKSRKFSLLPSRHGHSSSDPVYPCGICTNEVNDDQDAILCEASCQKWFHRICTGMTETAYGLLTAEASAVWGCDTCMADKDVQLMRTREAFGPPAVGGDA”, the “soluble on expression in E. coli” value was “soluble”.

As to “MRAELWQEQRLQLSLTKELVQAIELLQYSAADLEAFLYEQSLENPFLEIRRTRVRQRPSRTERDQKQWLENIGARAETLVGHLLSQLPALKLGDREERIVRYLIASLDEDGYLRVPLAELAARFSASEQEMERGLRLVQSLDPPGVGARDLAECLLLQLERLPERDELAETIVRYHFVPFAEKSWKTLAKQLGVSLGELQRVFELIRTLEPRPGIHYSSETLPLVVPDVIVTRGADGDWMAAYNDDIHPELGWNRDYERRIAASGDRHAEQFIKEKYRQFTWLAKSLEQRKQTLLHLMAVIIDRQRSCLEFGLSALKPMTMREVAEELGVHESTVSRAVRHKYVQTPFGTVELRRFFSNAATAAGDEAASSAHVKAIMEALISEEDRRAPLSDQQLADLLRDRYGIAISRRTVAKYREQLRIPSSAKRRQYIGLP”, the “soluble on expression in E. coli” value was “not soluble”.

Take “MGSDKIHHHHHHMATRATQISTLVEEIANNPNLKEDLKILPSNYTFEVPKTIWKIRSTESKYVALQFPEGLIMYACVIADILEKYTGCDTVIMGDVTYGACCVDDYTAKSMGCDLLVHYGHSCLVPIQNTDGIAMLYVFVNIHINLSHLIDCVKENFQGKRLVVVSTVQFIPSLQTLRTTFNKDDSSIRIDIPQCKPLSPGEVLGCTSPRLDASKYDAIVYLGDGRFHLESIMIHNPEIEAFQYDPYSRKLTREFYDHDLMRKNRIGSIEIARKCTTFGLIQGTLGRQGNLKVVEELEAQLERKGKKFLRVLLSEIFPEKLAMFPEVDCWVQVACPRLSIDWGTQFPKPLLYPFELAVALDNISVPSDHWPMDYYSNDSLGPWTNNNEANRPKREKRKPHIVVRTEAS”: the “soluble on expression in E. coli” value is listed as “not soluble”. For “MAQPYLPAEKFLSRKQETILLDEDEPAVVSSVRISPKKPYHVATTSSVRLTLYDTVVCEPLNLFSRFKKGVCSIDFRHDGRLLAIGGDEGKVRIFDVEKTTGSSKVALRVMQASQSTVKSVHFSPRGDTVFSMADDGKIKQYRVADTAYGVNAVPIIEIQAHEDAIRCGAVSSINDHIVLTGGYDHKVRLWDIRSKEKSLELDCEHPVESVLFLPGEQLIATAAGPIVKIWDTTTGRQLTALQAHYKTVTSLRLATNSTCLLSAGIDRRVNAFRTTNYSLINSWSMPSPVLDIDVSRDDQTMAIGMGNLLALYRRAEIKKEATASAAIEDKRSLIRTSAPPVKLVEKDRDMQKVDVVAKNADKLKIPKIDGMLSNFKHAAVIKLLFGGKFRSAMDTAVVSYLRVIVMRGAIHRALAGQERSVQKNILVFLNHNLYKAQYFSTLKEVVNAFFDVYALEKLDKDVVKHVQSLRGSLGRELEVQKMISSLIGSIDLIVSTTKMNVKSSSTALIEDNDVFGEPTIRARDLDELKPSDQGAEEEYEENMQIN”, the “soluble on expression in E. coli” value was “not soluble”. To “MSELNLSPDKLTVLLMGGSFGAGNIKETLDELLDTDRDFQILVITGKNESLKEKIEKKLMSRYHDKNVCVLGYTDKMNDILASIDVLVSKPGGLTTTEALLKDVPMIVPYYIPGQEEENLDFLSNCGAALRTTKKYNLSILLKVLIDDPSRLEMLKRNIKSIRKSNSAQNIANLILNIISGLEHHHHHH” belongs “not soluble”; to “DESATSYANSAIAIELDGDQYVARIKDPLADHAKYTEAFHAVGLDIDLRLVPASPTAVGKFLSVRWSKSSGAGPARSASGGSLPTLKFTPENCGEPNQAGCELTMRVPADYTGNMSLSLGRRAEPGEEYKNPDWATAPGEMFGGVQLQDGRPVDAMLAEARRRDLTVEFSRIRPDAETGALSFEPLSADQVRGDWTVWHAWQVKAGVIRLLVTPERLPENPFEKGARPPS”, “not soluble”; to “MLSRRGKMKRIKVLRNGPYLVEGSVPLYEEVIVTDEEGHTREFVERRQFPLKERYVLCRCGESGNKPYCDGTHIRTGFDGTETASLEPYIERARVFRAGDLELTDVPELCDHSRFCLRAGGIRELLRKGDRESIQIAIEEAMICPSGRLVLWDRKTGKPYERDYEKSIVVIHDKQKRCEGPLWVRGGIPIESADGREYEVRNRVTLCRCGLSENKPFCDGSHWMTAEEKLEFKRKWGIELEHHHHHH”, “not soluble”. To “MPSSRGVSLSISLAEAEVAPGGMLRGEVKVKVDSSHKNGIVYEAIRLVFLAVEKSCVWDDQGEFDELLNKYTSSRVYLDRHVTLTGFKTQSEDAETTAQVREEMLFLQHCATPYAAVAPTKPKKDAYRHYTREELLHGAIQMAATTKYTTGGVVAPDTNDSTNICMGSQKPVQAGDGPRSAAAAPRGGATEVEFPVLMPGTHRFPFLFRLPPWLPPSFYYSFVGAKGQLQYSASATMLFPGNGAGSWWFKICKDTSGAMRDMGKTFNRAAGSGAPSGKRARKRPGRDESGEGVIDLDDDEVGERMNRRLTSMPVYGPSDLTTAIHFDVLSVMPRRQLVAEYYQIDTHNLHQRPTNAPREAENAVSSSSNRNGAKKLQRRVDKSNDVGDVKPSGVSTGLLEHHEDTHLALSALYQTFRCGWLGNMCCLQPQNAIEAEVLVVGARTVLLADDVGALQALGVRPPITSDAPQLGGPALHAPDIVPSPDMAVAAPNTPWPVGGITLRVRVRNYCPTHTVECVRVELKVMLEIFKSLKTPHTFPGISYSSFDYTIPIPPGNQALFDVRLGLAPRFRRHETDSESLLPPPGVRTANMTSNTFLQVSFPGMYTYVEEEEEAKGVVIMAETVNLNDEVLELPVRYS” belongs “not soluble”; to “MEKISDLIECIAYEKNLPKEMISKVIQGCLLKMAQNELDPLARYLVVEENKQLQLIQLVEVLEDGDERLVNDPSKYISLSKAKEMDPSVKIKDELSYSLSLESMKQGAINRLFKDLQYQLEKALEDSHFEAFQKRLNSVLMGQVILVDHNQNTFIEIEQQFQGVLSMRHRIKGESFKVGDSIKAVLTQVKRTKKGLLLELSRTTPKMLEALLELEVPEIKDKEIEIIHCARIPGNRAKVSFFSHNARIDPIGAAVGVKGVRINAISNELNKENIDCIEYSNVPEIYITLALAPAKILSVEIKKIPIEELNAEEKESIQERFIVNNHLQKAKVRLLDIEKSKAIGKGGVNVCLASMLTGYHIEFETIPSVKENAENESEKETPKVGVEALESLFKN”, “not soluble”; to “MVESLKHTAAAAIAKLIHNGHFNSKSYAFDQESSNEVYAQLLRLDPQWSYNIDLKLKGLSFILTKVNFENVEMGPQTFGLLTQHNLKSLVLGNQDEIPSLEHYMSRLFRTSQIDHLDLSGRSQFSTAWLKTTGQQLPLLRTLNVSGVKLLNPDFFQFCKSFPNLYSLDISNCGVTILTGISRLKNLRHLSLRSLIYESWYDIRELFALKLLNVLDLSMHSTHHARRNMQRFLDCKQVLPELRFLECSGNLMDEDMLEELLITHSHLHQLAIVDCDVKAPKSSPIRILSCTTFDSSITALKYYLNLKRRNEVQICFQELRLHVKRLHERKMQYDVTECVTLSLQSLEKLPCSLIMNFDIVEERLFTSRLSFEADFLAEIVLHNFHRLSRVHTRLICDILLNNVNRQLIRDLRAETMWNAIIYLFNMGVFVDKQKLKGIASHCAASLHNGDPIIEEQAMRILTSCVTGKTLELVLSITESKHDTTPICLGFLRAALHKEDEQSSRRVAEKILAATHNNEEECKRYIKHGAMNMLISAIDRFDSEPMHIVILGIIRNLVMMSPYDKVQQIFTCVQFRTFQILLRNWTSSDRAYLMLSIFALRLNHQDKNFECVFRKCADELLRKHFPYLLATEITVDVDIYFDRGIVQNILRTSEEVGLVLWALLTIKIYAQKSLWNSRSIRDSNFFYLIENPHIASEVVNVASENVRFLFHW”, “not soluble”. “MSLKGDHAGKDRLIYKLQQTDSSYRYTNGTQGTAWTLIMENPLKGYGYGDDIYHAIYNKRVVDFPSWKFRQSIGPHNEGHHHHHH”: the “soluble on expression in E. coli” value was “soluble”. “MGHHHHHHSHALKAGKTASGAGEVVRCLSEQSVAISRCAGGAGARLPALLDEQQVNVLLYDMNGCYSRLKELVPTLPQNRKVSKVEILQHVIDYIRDLQLELNSESEVGTPGGRGLPVRAPLSTLNGEISALTAEAACVPADDRILCR”: the “soluble on expression in E. coli” value is “not soluble”.
